Assay results reported in article doi:10.1101/2025.08.18.670856.

B1: FetA-HIS (wild type, from the plasmid AHSG-bio-His) (natural protein)
chain: APHGPGLIYRQPNCDDPETEEAALVAIDYINQNLPWGYKHTLNQIDEVKVWPQQPSGELFEIEIDTLETTCHVLDPTPVARCSVRQLKEHAVEGDCDFQLLKLDGKFSVVYAKCDSSPDSAEDVRKVCQDCPLLAPLNDTRVVHAAKAALAAFNAQNNGSNFQLEEISRAQLVPLPPSTYVEFTVSGTDCVAKEATEAAKCNLLAEKQYGFCKATLSEKLGGAEVAVTCMVFQTQPVSSQPQPEGANEAVPTPVVDPDAPPSPPLGAPGLPPAGSPPDSHVLLAAPPGHQLHRAHYDLRHTFMGVVSLGSPSGEVSHPRKTRTVVQPSVGAAAGPVVPPCPGRIRHFKV

Tests used:
[1] = target: FetA-HIS (wild type, from the plasmid AHSG-bio-His) (human) (UniProt P02765); assay: SPR
[2] = target: HIF-1α wild type used in SPR: C-terminal domain (CTD) of hypoxia-stable HIF-1α (579-826 residues) (human) (UniProt Q16665); assay: SPR

Molecule | Kd [1] | Kd [2]
HIF-1α 743D>L point mutant (from UniProt Q16665 1-826) (natural protein) | 90 nM | –
B1 | – | 23.4 nM
